B1: rABM213 (other)
chain: ASYTYTVYRDGTKIKEGLTATTFEEDGVAAGNHEYCVEVKYTAGVSPKVCKDVTVEGSNEFAPVQNLTGSSVGQKVTLKWDAPNGTPNPNPNPNPNPGT
notes: also called recombinant protein encoding ABM2(1), ABM1(2) and ABM3
B2: rABM21-SSEYQ (other)
chain: ASYTYTVYRDGTKIKEGLTATTFEEDGVAAGNHEYCVEVKYTAGVSPKVCKDVTVEGSSEYQPVQNLTGSSVGQKVTLKWDAPNGT
notes: also called SSEYQ variant
B3: rABM21-Y > A/W > A (other)
chain: ASYTATVYRDGTKIKEGLTATTFEEDGVAAGNHEYCVEVKYTAGVSPKVCKDVTVEGSNEFAPVQNLTGSSVGQKVTLKADAPNGT
B4: rABM21-AVQA-2X Cys > Ser (other)
chain: ASYTYTVYRDGTKIKEGLTATTFEEDGVAAGNHEYSVEVKYTAGVSPKVSKDVTVEGSNEFAAVQALTGSSVGQKVTLKWDAPN
B5: rABM21--Y > A (other)
chain: ASYTATVYRDGTKIKEGLTATTFEEDGVAAGNHEYCVEVKYTAGVSPKVCKDVTVEGSNEFAPVQNLTGSSVGQKVTLKWDAPN
B6: rABM21-AVQN (other)
chain: ASYTYTVYRDGTKIKEGLTATTFEEDGVAAGNHEYCVEVKYTAGVSPKVCKDVTVEGSNEFAAVQNLTGSSVGQKVTLKWDAPN
B7: rABM21 (other)
chain: ASYTYTVYRDGTKIKEGLTATTFEEDGVAAGNHEYCVEVKYTAGVSPKVCKDVTVEGSNEFAPVQNLTGSSVGQKVTLKWDAPN
notes: also called recombinant ABM21; recombinant protein encoding ABM2(1) and ABM1(2)
B8: rABM21-AVQP (other)
chain: ASYTYTVYRDGTKIKEGLTATTFEEDGVAAGNHEYCVEVKYTAGVSPKVCKDVTVEGSNEFAAVQPLTGSSVGQKVTLKWDAPN
B9: rABM21-AVQA (other)
chain: ASYTYTVYRDGTKIKEGLTATTFEEDGVAAGNHEYCVEVKYTAGVSPKVCKDVTVEGSNEFAAVQALTGSSVGQKVTLKWDAPN
B10: KDcAK1n-4S (other)
chain: NTGVSFANYTAHGSETAWADPLLTTSQLKALTNKDKWGDNTGYQFLLDADHNTFGSVIPATGPLFTGTASSNLYSANFEYLIPANADPVVTTQNIIVTGQGEVVIPGGVYDYSITNPEPASGKMWIAGDGGNQPARYDDFTFEAGKKYTFTMRRAGMGDGTDMEVEDDSPASYTYTVYRDGTKIKEGLTATTFEEDGVAAGNHEYSVEVKYTAGVSPKVSKDVTVEGSNEFAPVQNLTGSSVGQKVTLKWDAPNGTPNPNPNPNPNPGTTLSESFENGIPASWKTIDADGDGHGWKPGNAPGIAGYNSNGSVYSESFGLGGIGVLTPDNYLITPALDLPNGG
notes: also called chimera with all four Cysteine residues mutated to Serine
B11: KDcAK1n-4S-AVQP (other)
chain: NTGVSFANYTAHGSETAWADPLLTTSQLKALTNKDKWGDNTGYQFLLDADHNTFGSVIPATGPLFTGTASSNLYSANFEYLIPANADPVVTTQNIIVTGQGEVVIPGGVYDYSITNPEPASGKMWIAGDGGNQPARYDDFTFEAGKKYTFTMRRAGMGDGTDMEVEDDSPASYTYTVYRDGTKIKEGLTATTFEEDGVAAGNHEYSVEVKYTAGVSPKVSKDVTVEGSNEFAAVQPLTGSSVGQKVTLKWDAPNGTPNPNPNPNPNPGTTLSESFENGIPASWKTIDADGDGHGWKPGNAPGIAGYNSNGSVYSESFGLGGIGVLTPDNYLITPALDLPNGG
notes: also called KDcAKIn-4S-AVQP; KDcAK1n PVQN>AVQP/4 Cys>Ser variant
B12: rABM21-2XCys > Ser (other)
chain: ASYTYTVYRDGTKIKEGLTATTFEEDGVAAGNHEYSVEVKYTAGVSPKVSKDVTVEGSNEFAPVQNLTGSSVGQKVTLKWDAPN
B13: rABM21-AVQP-2X Cys > Ser (other)
chain: ASYTYTVYRDGTKIKEGLTATTFEEDGVAAGNHEYSVEVKYTAGVSPKVSKDVTVEGSNEFAAVQPLTGSSVGQKVTLKWDAPN
notes: also called ABM21-2S-AVQP
B14: KDAK1nK (other)
chain: NTGVSFANYTAHGSETAWADPLLTTSQLKALTNKDKAEGSREVKRIGDGLFVTIEPANDVRANEAKVVLAADNVWGDNTGYQFLLDADHNTFGSVIPATGPLFTGTASSNLYSANFEYLIPANADPVVTTQNIIVTGQGEVVIPGGVYDYCITNPEPASGKMWIAGDGGNQPARYDDFTFEAGKKYTFTMRRAGMGDGTDMEVEDDSPASYTYTVYRDGTKIKEGLTATTFEEDGVAAGNHEYCVEVKYTAGVSPKVCKDVTVEGSNEFAPVQNLTGSSVGQKVTLKWDAPNGTPNPNPNPNPNPGTTLSESFENGIPASWKTIDADGDGHGWKPGNAPGIAGYNSNGCVYSESFGLGGIGVLTPDNYLITPALDLPNGGNTGVSFANYTAHGSETAWADPLLTTSQLKALTNKDK
B15: KDAK1n (other)
chain: NTGVSFANYTAHGSETAWADPLLTTSQLKALTNKDKAEGSREVKRIGDGLFVTIEPANDVRANEAKVVLAADNVWGDNTGYQFLLDADHNTFGSVIPATGPLFTGTASSNLYSANFEYLIPANADPVVTTQNIIVTGQGEVVIPGGVYDYCITNPEPASGKMWIAGDGGNQPARYDDFTFEAGKKYTFTMRRAGMGDGTDMEVEDDSPASYTYTVYRDGTKIKEGLTATTFEEDGVAAGNHEYCVEVKYTAGVSPKVCKDVTVEGSNEFAPVQNLTGSSVGQKVTLKWDAPNGTPNPNPNPNPNPGTTLSESFENGIPASWKTIDADGDGHGWKPGNAPGIAGYNSNGCVYSESFGLGGIGVLTPDNYLITPALDLPNGG
B16: KDcAK1n (prior art chimera) (other)
chain: NTGVSFANYTAHGSETAWADPLLTTSQLKALTNKDKWGDNTGYQFLLDADHNTFGSVIPATGPLFTGTASSNLYSANFEYLIPANADPVVTTQNIIVTGQGEVVIPGGVYDYCITNPEPASGKMWIAGDGGNQPARYDDFTFEAGKKYTFTMRRAGMGDGTDMEVEDDSPASYTYTVYRDGTKIKEGLTATTFEEDGVAAGNHEYCVEVKYTAGVSPKVCKDVTVEGSNEFAPVQNLTGSSVGQKVTLKWDAPNGTPNPNPNPNPNPGTTLSESFENGIPASWKTIDADGDGHGWKPGNAPGIAGYNSNGCVYSESFGLGGIGVLTPDNYLITPALDLPNGG
notes: also called original chimera
B17: DUF (other)
chain: AEGSREVKRIGDGLFVTIEPANDVRANEAKVVLAADNVWGDNTGYQFLLDADHNTFGSVIPATGPLFTGTASSNLYSANFEYLIPANADPVVTTQNIIVTGQGEVVIPGGVYDYCITNPEPASGKMWIAGDGGNQPARYDDFTFEAGKKYTFTMRRAGMGDGTDM
notes: also called DUF2436 domain; not shown: C-terminal His tag
B18: DUF-ABM213 (other)
chain: AEGSREVKRIGDGLFVTIEPANDVRANEAKVVLAADNVWGDNTGYQFLLDADHNTFGSVIPATGPLFTGTASSNLYSANFEYLIPANADPVVTTQNIIVTGQGEVVIPGGVYDYCITNPEPASGKMWIAGDGGNQPARYDDFTFEAGKKYTFTMRRAGMGDGTDMEVEDDSPASYTYTVYRDGTKIKEGLTATTFEEDGVAAGNHEYCVEVKYTAGVSPKVCKDVTVEGSNEFAPVQNLTGSSVGQKVTLKWDAPNGTPNPNPNPNPNPGT
notes: also called DUF2436 domain plus ABMs
B19: KDAK1n-4S-AVQP (other)
chain: NTGVSFANYTAHGSETAWADPLLTTSQLKALTNKDKAEGSREVKRIGDGLFVTIEPANDVRANEAKVVLAADNVWGDNTGYQFLLDADHNTFGSVIPATGPLFTGTASSNLYSANFEYLIPANADPVVTTQNIIVTGQGEVVIPGGVYDYSITNPEPASGKMWIAGDGGNQPARYDDFTFEAGKKYTFTMRRAGMGDGTDMEVEDDSPASYTYTVYRDGTKIKEGLTATTFEEDGVAAGNHEYSVEVKYTAGVSPKVSKDVTVEGSNEFAAVQPLTGSSVGQKVTLKWDAPNGTPNPNPNPNPNPGTTLSESFENGIPASWKTIDADGDGHGWKPGNAPGIAGYNSNGSVYSESFGLGGIGVLTPDNYLITPALDLPNGG
notes: also called KDAK1n mutant
B20: KDcAK1nK (other)
chain: NTGVSFANYTAHGSETAWADPLLTTSQLKALTNKDKWGDNTGYQFLLDADHNTFGSVIPATGPLFTGTASSNLYSANFEYLIPANADPVVTTQNIIVTGQGEVVIPGGVYDYCITNPEPASGKMWIAGDGGNQPARYDDFTFEAGKKYTFTMRRAGMGDGTDMEVEDDSPASYTYTVYRDGTKIKEGLTATTFEEDGVAAGNHEYCVEVKYTAGVSPKVCKDVTVEGSNEFAPVQNLTGSSVGQKVTLKWDAPNGTPNPNPNPNPNPGTTLSESFENGIPASWKTIDADGDGHGWKPGNAPGIAGYNSNGCVYSESFGLGGIGVLTPDNYLITPALDLPNGGNTGVSFANYTAHGSETAWADPLLTTSQLKALTNKDK

Target: the molecule itself
Experiment: Native PAGE without DTT; self-association (ability to form multimers)

Q: Does B1 bind?
A: Result: binds

Q: Does B2 bind?
A: Result: binds

Q: Does B3 bind?
A: Result: no binding

Q: Does B4 bind?
A: Result: binds

Q: Does B5 bind?
A: Result: binds

Q: Does B6 bind?
A: Result: binds

Q: Does B7 bind?
A: Result: binds

Q: Does B8 bind?
A: Result: binds

Q: Does B9 bind?
A: Result: binds

Target: the molecule itself
Experiment: native PAGE with and without DTT, self-association (multimer ladder)

Q: Does B10 bind?
A: Result: binds

Q: Does B11 bind?
A: Result: no binding

Q: Does B12 bind?
A: Result: binds

Q: Does B13 bind?
A: Result: no binding

Target: the molecule itself
Experiment: native PAGE of small scale purified protein, self-association (multimer ladder)

Q: Does B14 bind?
A: Result: binds

Q: Does B15 bind?
A: Result: binds

Target: the molecule itself
Experiment: native PAGE of small scale purified protein, self-association (multimers)

Q: Does B16 bind?
A: Result: binds

Target: the molecule itself
Experiment: column 'Multimer [yes/no]'; self-association

Q: Does B17 bind?
A: Result: no binding

Q: Does B18 bind?
A: Result: binds

Q: Does B19 bind?
A: Result: no binding

Target: the molecule itself
Experiment: native PAGE of small scale purified protein, self-association (multimer bands)

Q: Does B20 bind?
A: Result: binds
